Assay results published in article doi:10.1101/2023.03.13.532366.

Molecular target: biotinylated mIL-12 (mIL-12a-AviTag-His6 and untagged mIL-12b) (mouse) (UniProt P43431)
Assay: BLI

Chain of biotinylated mIL-12 (mIL-12a-AviTag-His6 and untagged mIL-12b) (mouse) (P43431 23-215, chain 1 of 2): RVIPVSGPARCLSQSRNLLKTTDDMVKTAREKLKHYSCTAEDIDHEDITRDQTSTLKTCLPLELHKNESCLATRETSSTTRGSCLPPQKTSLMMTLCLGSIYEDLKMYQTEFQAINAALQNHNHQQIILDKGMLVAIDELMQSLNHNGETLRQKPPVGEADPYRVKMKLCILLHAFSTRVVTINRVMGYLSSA
Chain of biotinylated mIL-12 (mIL-12a-AviTag-His6 and untagged mIL-12b) (mouse) (P43432 23-335, chain 2 of 2, further chain): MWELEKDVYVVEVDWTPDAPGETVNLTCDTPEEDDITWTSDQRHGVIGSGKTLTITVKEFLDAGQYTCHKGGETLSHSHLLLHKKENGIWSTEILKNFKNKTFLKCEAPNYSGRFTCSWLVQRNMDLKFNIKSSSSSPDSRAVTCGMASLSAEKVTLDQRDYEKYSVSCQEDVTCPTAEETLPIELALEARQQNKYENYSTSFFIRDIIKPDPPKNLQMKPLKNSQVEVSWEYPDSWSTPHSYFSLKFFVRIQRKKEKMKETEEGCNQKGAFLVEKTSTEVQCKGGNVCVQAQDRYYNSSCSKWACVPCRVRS
Chain of mIL-12Rβ1_(D1-D2) (from mIL-12Rβ1_(D1-D2)-CASP3-AviTag-His6), analyte in BLI (domain or fragment) (Q60837 20-738): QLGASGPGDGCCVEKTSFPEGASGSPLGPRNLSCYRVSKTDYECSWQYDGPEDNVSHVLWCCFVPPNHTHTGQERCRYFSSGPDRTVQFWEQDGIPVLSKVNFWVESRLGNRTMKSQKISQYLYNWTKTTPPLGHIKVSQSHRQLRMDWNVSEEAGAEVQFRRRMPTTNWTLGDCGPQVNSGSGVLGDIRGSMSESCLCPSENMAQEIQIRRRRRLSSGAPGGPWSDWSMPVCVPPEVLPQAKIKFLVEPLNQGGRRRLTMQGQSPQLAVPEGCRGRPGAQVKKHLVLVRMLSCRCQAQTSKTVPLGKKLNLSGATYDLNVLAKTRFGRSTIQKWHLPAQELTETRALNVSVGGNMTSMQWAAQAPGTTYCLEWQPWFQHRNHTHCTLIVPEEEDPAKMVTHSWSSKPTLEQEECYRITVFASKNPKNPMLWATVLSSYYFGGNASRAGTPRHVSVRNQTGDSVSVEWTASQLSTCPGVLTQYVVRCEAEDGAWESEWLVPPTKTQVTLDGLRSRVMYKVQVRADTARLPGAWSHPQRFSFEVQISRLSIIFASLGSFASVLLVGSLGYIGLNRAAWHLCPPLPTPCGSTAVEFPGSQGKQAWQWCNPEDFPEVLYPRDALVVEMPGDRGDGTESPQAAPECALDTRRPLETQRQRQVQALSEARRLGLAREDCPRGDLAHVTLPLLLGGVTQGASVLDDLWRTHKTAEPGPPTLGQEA

fold higher affinity than the human counterparts (hIL-12 for hIL-12Rβ1): 10 fold
Substance: mIL-12Rβ1_(D1-D2) (from mIL-12Rβ1_(D1-D2)-CASP3-AviTag-His6), analyte in BLI (domain or fragment)
